The values below are quoted from earlier work in publication PMC5419078.

Like-named read-outs stand apart in the source and are kept apart here.

Data set [1] concerns the target infliximab. Briefly: SPR. Background: Surface plasmon resonance follows binding to a sensor surface in real time, without labels.
Data set [2] has as its target etanercept ECD (Homo sapiens) (UniProt P20333). Briefly: SPR.
For data set [3] the target is unchanged.
Data set [4] has as its target infliximab.

Chain of TNF (P01375 77-233): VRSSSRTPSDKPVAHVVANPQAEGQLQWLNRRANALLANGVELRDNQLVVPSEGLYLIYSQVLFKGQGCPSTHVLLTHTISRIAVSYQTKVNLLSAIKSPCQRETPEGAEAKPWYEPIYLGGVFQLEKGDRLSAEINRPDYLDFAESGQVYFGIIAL
Chain of etanercept ECD (Homo sapiens) (P20333 23-257): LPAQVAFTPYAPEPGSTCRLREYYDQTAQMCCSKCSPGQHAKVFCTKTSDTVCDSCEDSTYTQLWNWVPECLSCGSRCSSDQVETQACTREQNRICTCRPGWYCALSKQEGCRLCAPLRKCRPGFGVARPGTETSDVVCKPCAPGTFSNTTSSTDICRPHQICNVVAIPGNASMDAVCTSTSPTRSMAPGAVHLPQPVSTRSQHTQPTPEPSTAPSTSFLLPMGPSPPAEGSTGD
Chain of infliximab (main, as listed by the source, chain 1 of 2, other chains not shown): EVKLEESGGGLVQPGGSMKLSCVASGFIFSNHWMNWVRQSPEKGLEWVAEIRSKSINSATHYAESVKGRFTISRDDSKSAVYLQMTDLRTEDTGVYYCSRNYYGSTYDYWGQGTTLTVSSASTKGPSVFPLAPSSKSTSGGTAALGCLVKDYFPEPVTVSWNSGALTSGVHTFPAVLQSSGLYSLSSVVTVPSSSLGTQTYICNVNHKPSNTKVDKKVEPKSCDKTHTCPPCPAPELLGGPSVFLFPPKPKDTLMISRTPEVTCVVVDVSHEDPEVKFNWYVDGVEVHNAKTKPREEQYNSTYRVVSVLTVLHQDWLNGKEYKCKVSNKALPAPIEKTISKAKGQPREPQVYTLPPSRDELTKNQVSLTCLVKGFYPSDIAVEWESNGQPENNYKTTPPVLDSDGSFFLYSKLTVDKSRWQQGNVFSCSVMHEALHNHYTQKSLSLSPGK

By Kd is commonly meant the constant that tells how readily two partners part at equilibrium. As for TNF (from UniProt P01375), the Kd with infliximab [1] was 0.0273 nM; in data set [2] it was 0.0118 nM; in data set [3], 0.00566 nM; in the data set with infliximab [4] it was 0.0886 nM.
